One molecule from publication PMC11196578 can be followed below.

The target in the series is MPXV E5_∆N (Mpox virus, UniProt A0A7H0DN89 323-785). As to the kind of experiment: cryo-EM (2.67 A). The conditions noted are these: protein: recombinant; tags: SUMO fusion; protease-treated (ULP or TEV); chain copies: 6.
Chain of MPXV E5_∆N (A0A7H0DN89 323-785): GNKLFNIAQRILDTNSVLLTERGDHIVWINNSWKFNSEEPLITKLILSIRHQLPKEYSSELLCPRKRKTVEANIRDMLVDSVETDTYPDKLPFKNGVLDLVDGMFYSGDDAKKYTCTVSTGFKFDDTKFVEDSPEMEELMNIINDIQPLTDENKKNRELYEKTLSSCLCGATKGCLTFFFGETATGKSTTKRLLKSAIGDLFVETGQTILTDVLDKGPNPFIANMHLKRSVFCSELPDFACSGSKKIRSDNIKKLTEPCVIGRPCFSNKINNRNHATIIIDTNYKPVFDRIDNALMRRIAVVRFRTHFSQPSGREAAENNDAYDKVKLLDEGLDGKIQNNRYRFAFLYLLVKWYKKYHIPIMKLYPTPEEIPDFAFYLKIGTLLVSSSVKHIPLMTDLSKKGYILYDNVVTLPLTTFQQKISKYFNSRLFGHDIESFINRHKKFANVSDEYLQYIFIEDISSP

B1: Forked DNA (mixed)
DNA 1: AACGAGTCAAGCGCATCCCGTTTTTTTTTTTTTTT
DNA 2: TTTTTTTTTTTTTTTCGGGATGCGCTTGACTCGTT
Take B1: the binding result is given as “binds”.
